Experimental data published in IntAct's records for PubMed 18292755.

B1: Autoimmune regulator (Homo sapiens), O43918 (parent)
chain: MATDAALRRLLRLHRTEIAVAVDSAFPLLHALADHDVVPEDKFQETLHLKEKEGCPQAFHALLSWLLTQDSTAILDFWRVLFKDYNLERYGRLQPILDSFPKDVDLSQPRKGRKPPAVPKALVPPPRLPTKRKASEEARAAAPAALTPRGTASPGSQLKAKPPKKPESSAEQQRLPLGNGIQTMSASVQRAVAMSSGDVPGARGAVEGILIQQVFESGGSKKCIQVGGEFYTPSKFEDSGSGKNKARSSSGPKPLVRAKGAQGAAPGGGEARLGQQGSVPAPLALPSDPQLHQKNEDECAVCRDGGELICCDGCPRAFHLACLSPPLREIPSGTWRCSSCLQATVQEVQPRAEEPRPQEPPVETPLPPGLRSAGEEVRGPPGEPLAGMDTTLVYKHLPAPPSAAPLPGLDSSALHPLLCVGPEGQQNLAPGARCGVCGDGTDVLRCTHCAAAFHWRCHFPAGTSRPGTGLRCRSCSGDVTPAPVEGVLAPSPARLAPGPAKDDTASHEPALHRDDLESLLSEHTFDGILQWAIQSMARPAAPFPS

Variants of: B1
Conditions: with h31_human H3C1, P68431

Row | Variant | effect of a mutation on the interaction
1 | C311Y | disrupting interaction

Variants of: B1
Conditions: with h31_human H3C1, P68431
Remark: another data set of the same source

Row | Variant | effect of a mutation on the interaction
2 | V301M | decreasing interaction

Variants of: B1
Conditions: with h31_human H3C1, P68431
Remark: another data set of the same source

Row | Variant | effect of a mutation on the interaction
3 | D297A | disrupting interaction

Variants of: B1
Conditions: with h31_human H3C1, P68431
Remark: another data set of the same source

Row | Variant | effect of a mutation on the interaction
4 | D297A | decreasing interaction

Variants of: B1
Conditions: with h31_human H3C1, P68431
Remark: another data set of the same source

Row | Variant | effect of a mutation on the interaction
5 | D312A | disrupting interaction
